Series [1] deals with T1, VtlR (rVtlR) (Agrobacterium tumefaciens C58) (UniProt A9CI74).
T1 sequence: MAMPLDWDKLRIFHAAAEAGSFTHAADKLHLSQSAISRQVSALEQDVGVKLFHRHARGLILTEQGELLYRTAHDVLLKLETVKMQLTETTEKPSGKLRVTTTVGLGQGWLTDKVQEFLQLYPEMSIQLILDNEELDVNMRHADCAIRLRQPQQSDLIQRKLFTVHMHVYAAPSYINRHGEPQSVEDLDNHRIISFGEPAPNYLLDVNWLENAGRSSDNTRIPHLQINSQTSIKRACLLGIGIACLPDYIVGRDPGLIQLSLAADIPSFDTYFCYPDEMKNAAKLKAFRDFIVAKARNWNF
Kind of series: EMSA.

Series [2] concerns the target T1, VtlR (rVtlR) (Agrobacterium tumefaciens C58). Kind of series: competition.

Turning to “GAACTGGGAGGAAAAGCCACCGTGTGCATCAACTGAGAGCTATTTGGTGTTTTTTTGTGCACGAAACAACTCTTTTTTGTGCAGGTCAGGCATGCGTCGCACGCAGCCCTCGATATTTCCGGTATATTTTATGTGCAAAGCTGAAGAAGGGCGCCTGCGCGCCCCTCTTGCTTCTACCTTTACAAGGCTTTGAATTTTAAAGATTATCTTTCGACGTCGATTATTTTTACGTCAGAAGTTCCAGTTCCGC (double strand) [PabcR1]”, in series [1], the binding entry is recorded as “binds”.
For the sequence “GCCGTGGGCAAGCGTGACAGCTAACTAAAATATGGGAGTGGCAAGAATGCAAAACAAGGTTGCATCATGCGATATTTCGCCAATTTGGAGAAAATTCTTGCGGGTAAAAAAAGAGGGCCGCCG (double strand) [PabcR2]”, in series [2], the binding entry was “no binding”.
